# Assay results: patent publication US20220112296A1 (Chugai, published 2022)
# Substitutions are numbered along the chain they refer to.
# B1: GPC3 ERY22-B (bispecific antibody, human IgG1, kappa, L234A L235A, N297A)
# heavy 1: DIVMTQSPLSLPVTPGEPASISCRSSQSLVHSNRNTYLHWYQQKPGQAPRLLIYKVSNRFSGVPDRFSGSGSGTDFTLKISRVEAEDVGVYYCSQNTHVPPTFGQGTKLEIKSSASTKGPSVFPLAPSSKSTSGGTAALGCLVKDYFPEPVTVSWNSGALTSGVHTFPAVLQSSGLYSLSSVVTVPSSSLGTQTYICNVNHKPSNTKVDKKVEPKSCDKTHTCPPCPAPEAAGGPSVFLFPPKPKDTLMISRTPEVTCVVVDVSHEDPEVKFNWYVDGVEVHNAKTKPREEQYASTYRVVSVLTVLHQDWLNGKEYKCKVSNKALPAPIEKTISKAKGQPREPQVCTLPPSRDELTKNQVSLWCLVKGFYPSDIAVEWESNGQPENNYKTTPPVLDSDGSFFLYSKLTVDKSRWQQGNVFSCSVMHEALHNHYTQKSLSLSPHHHHHHHH
# light 1: QVQLVQSGAEVKKPGASVKVSCKASGYTFTDYEMHWIRQPPGQGLEWIGAIDPKTGDTAYSQKFKGRVTLTADKSTSTAYMELSSLTSEDTAVYYCTRFYSYTYWGQGTLVTVSSASVAAPSVFIFPPSDEQLKSGTASVVCLLNNFYPREAKVQWKVDNALQSGNSQESVTEQDSKDSTYSLSSTLTLSKADYEKHKVYACEVTHQGLSSPVTKSFNRGEC
# heavy 2: QVQLQQWGAGLLKPSETLSLTCAVYGGSFSGYYWSWIRQSPEKGLEWIGEINHGGYVTYNPSLESRVTISVDTSKNQFSLKLSSVTAADTAVYYCARDYGPGNYDWYFDLWGRGTLVTVSSASTKGPSVFPLAPSSKSTSGGTAALGCLVKDYFPEPVTVSWNSGALTSGVHTFPAVLQSSGLYSLSSVVTVPSSSLGTQTYICNVNHKPSNTKVDKKVEPKSCDKTHTCPPCPAPEAAGGPSVFLFPPKPKDTLMISRTPEVTCVVVDVSHEDPEVKFNWYVDGVEVHNAKTKPREEQYASTYRVVSVLTVLHQDWLNGKEYKCKVSNKALPAPIEKTISKAKGQPREPQVYTLPPSRCELTKNQVSLSCAVKGFYPSDIAVEWESNGQPENNYKTTPPVLDSDGSFFLVSKLTVDKSRWQQGNVFSCSVMHEALHNHYTQKSLSLSP
# light 2: not shown
# B2: GPC3 ERY22-dBBDu_183/L072 (bispecific antibody, human IgG1, kappa, L234A L235A, N297A)
# heavy 1: B1 heavy 1
# light 1: B1 light 1
# heavy 2: QVQLVESGGGLVQPGRSLRLSCAASGFTFSNAWMHWVRQAPGKGLEWVAQIKDKGNAYAAYYAPSVKGRFTISRDDSKNSIYLQMNSLKTEDTAVYYCHYVHYASASTVLPAFGVDAWGQGTTVTVSSASTKGPSVFPLAPSSKSTSGGTAALGCLVKDYFPEPVTVSWNSGALTSGVHTFPAVLQSSGLYSLSSVVTVPSSSLGTQTYICNVNHKPSNTKVDKKVEPKSCDKTHTCPPCPAPEAAGGPSVFLFPPKPKDTLMISRTPEVTCVVVDVSHEDPEVKFNWYVDGVEVHNAKTKPREEQYASTYRVVSVLTVLHQDWLNGKEYKCKVSNKALPAPIEKTISKAKGQPREPQVYTLPPSRCELTKNQVSLSCAVKGFYPSDIAVEWESNGQPENNYKTTPPVLDSDGSFFLVSKLTVDKSRWQQGNVFSCSVMHEALHNHYTQKSLSLSPDYKDDDDK
# light 2: DIVMTQSPLSLPVTPGEPASISCQASQELVHMNRNTYLHWYQQKPGQAPRLLIYKVSNRFPGVPDRFSGSGSGTDFTLKISRVEAEDVGVYYCAQGTSVPFTFGQGTKLEIKRTVAAPSVFIFPPSDEQLKSGTASVVCLLNNFYPREAKVQWKVDNALQSGNSQESVTEQDSKDSTYSLSSTLTLSKADYEKHKVYACEVTHQGLSSPVTKSFNRGEC
# B3: GPC3 ERY22-dBBDu_183/L063 (bispecific antibody, human IgG1, kappa, L234A L235A, N297A)
# heavy 1: B1 heavy 1
# light 1: B1 light 1
# heavy 2: B2 heavy 2
# light 2: B2 light 2 with Q24R, A25S, M32T, N35H, S98Q
# Biological target: human CD137 (4-1BB) on cells (human, UniProt Q07011 24-255)
# Assay: cell-based or functional assay
# human CD137 (4-1BB) on cells, sequence (Q07011 24-255): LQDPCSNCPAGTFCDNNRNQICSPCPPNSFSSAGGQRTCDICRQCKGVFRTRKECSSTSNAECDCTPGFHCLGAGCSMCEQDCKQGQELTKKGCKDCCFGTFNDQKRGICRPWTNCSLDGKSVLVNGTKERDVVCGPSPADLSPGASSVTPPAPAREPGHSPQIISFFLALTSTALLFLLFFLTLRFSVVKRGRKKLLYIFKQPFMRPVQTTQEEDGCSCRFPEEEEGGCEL
"Agonistic activity compared to B, 6 ug/mL [%]","Agonistic activity compared to B, 30 ug/mL [%]","Agonistic activity compared to Ctrl, 6 ug/mL [%]","Agonistic activity compared to Ctrl, 30 ug/mL [%]","hIL-6 (pg/mL), 6 ug/mL antibody [pg/mL]","hIL-6 (pg/mL), 30 ug/mL antibody [pg/mL]",Binder
100,100,347,380,4520,4340,B1
3.21,15.8,11.1,59.8,1130,1450,B2
-1.27,6.51,-4.41,24.7,968,1130,B3
